Columns and labels:
[1] = brush border membrane vesicles (BBMVs) extracted from mouse kidneys, control well with phosphoramidon; conditions: 37 °C, up to 1 h
[2] = brush border membrane vesicles (BBMVs) extracted from mouse kidneys; conditions: 37 °C, up to 1 h
[3] = mouse blood samples collected at 5 min p.i.; conditions: Male NSG mice, up to 5 min p.i.
[4] = mouse urine samples collected at 15 min p.i.; conditions: Male NSG mice, up to 15 min p.i.
[5] = in vivo; conditions: male, NOD-scid IL2Rg^null (NSG), mouse, iv, total radioactivity
Method: All imaging and biodistribution studies were performed using male NOD-scid IL2Rg^null (NSG) mice and conducted according to the guidelines established by the Canadian Council on Animal Care and approved by Animal Ethics Committee of the University of British Columbia. For tumor inoculations, mice were anesthetized by inhalation with 2% isoflurane in oxygen and implanted subcutaneously with 5 × 10^6 LNCaP cells below the left shoulder. Imaging and biodistribution studies were performed only after tumors grew to 5−8 mm in diameter over a period of 5−7 weeks.
For ex vivo biodistribution studies, mice were injected with ~1.5−3 MBq of the ^68Ga-labeled tracer. At 1 h p.i., mice were euthanized, blood was drawn from heart, and organs/tissues of interest were collected, rinsed with PBS, blotted dry, weighed, and counted using an automated gamma counter. The uptake in each organ/tissue was normalized to the injected dose and expressed as the percentage of the injected dose per gram of tissue (%ID/g).
Statistical analyses were performed by Student’s t-test using the Microsoft (Redmond, WA, USA) Excel software. The unpaired, two-tailed test was used to compare tissue uptake and tumor-to-background (muscle, blood and kidney) contrast ratios of [^68Ga]Ga-DOTA-AmBz-MVK(HTK01166)-OH and [^68Ga]Ga-DOTA-AmBz-M(O)VK(HTK01166)-OH. The unpaired, one-tailed test was used to compare kidney uptake of [^68Ga]Ga-DOTA-AmBz-MVK(HTK01166)-OH (or [^68Ga]Ga-DOTA-AmBz-M(O)VK(HTK01166)-OH) with that of the previously reported [^68Ga]Ga-HTK01166 [15]. The difference was considered statistically significant when the p value was <0.05.

[6] = test system: mice; conditions: mouse, in vivo
Method: Radio-metabolites of [^68Ga]Ga-DOTA-AmBz-MVK(Ac)-OH and [^68Ga]Ga-DOTA-AmBz-MVK(HTK01166)-OH in mouse blood and urine samples were analyzed by HPLC. The blood samples were collected at 5 min p.i. due to the fast excretion nature of the small radio-metabolites, whereas the urine samples were collected at 15 min p.i. to allow sufficient time for the accumulation of enough radio-metabolites for analysis.
Male NSG mice were injected with 3–17 MBq of the ^68Ga-labeled peptide. For blood profiling, mice were anesthetized with 2% isoflurane in O2 and euthanized by CO2 inhalation at 5 min p.i. Blood draw was then performed by cardiac puncture and blood was collected in an eppendorf tube with equal volume of CH3CN. Each tube was then centrifuged at RT for 10–15 min and the resulting supernatant was collected and analyzed using the analytical HPLC column to identify and quantify radio-metabolite(s) in blood. For the purpose of urine profiling, urine was collected after euthanizing the mice at 15 min p.i. The urine samples were also collected and analyzed using the analytical HPLC column to identify and quantify radio-metabolite(s) in urine.

[7] = brush border membrane vesicles (BBMVs) extracted from mouse kidneys, with phosphoramidon; conditions: 37 °C, up to 1 h

| cleaved bond [2] | cleaved bond [3] | cleaved bond [4] | Compound | tissue uptake at 1 h ([5]; Adrenal Glands uptake) | tissue uptake at 1 h ([5]; Bone uptake) | tissue uptake at 1 h ([5]; Brain uptake) | tissue uptake at 1 h ([5]; Fat uptake) | tissue uptake at 1 h ([5]; Heart uptake) | tissue uptake at 1 h ([5]; Intestines uptake) | tissue uptake at 1 h ([5]; Kidneys uptake) | tissue uptake at 1 h ([5]; LNCaP Tumor uptake) | tissue uptake at 1 h ([5]; Liver uptake) | tissue uptake at 1 h ([5]; Lungs uptake) | tissue uptake at 1 h ([5]; Muscle uptake) | tissue uptake at 1 h ([5]; Pancreas uptake) | tissue uptake at 1 h ([5]; Spleen uptake) | tissue uptake at 1 h ([5]; Stomach uptake) | tissue uptake at 1 h ([5]; Tail uptake) | tissue uptake at 1 h ([5]; Testes uptake) | tissue to tissue ratio at 1 h ([5]; Tumor/Blood uptake ratio) | also measured |
| --- | --- | --- | --- | --- | --- | --- | --- | --- | --- | --- | --- | --- | --- | --- | --- | --- | --- | --- | --- | --- | --- |
| Met-Val, major, 1 h | Met-Val, minor, 5 min p.i. | Met-Val, major, 15 min p.i. | [^68Ga]Ga-DOTA-AmBz-MVK(Ac)-OH |  |  |  |  |  |  |  |  |  |  |  |  |  |  |  |  |  | cleaved bond [1]: Met-Val, 1 h |
|  |  |  | [^68Ga]Ga-DOTA-AmBz-M(O)VK(HTK01166)-OH |  |  |  |  |  |  |  |  |  |  |  |  |  |  |  |  |  | not cleaved [1]: 99.5% remaining intact after 1 h; not cleaved [2]: 94% remaining intact after 1 h |
|  |  |  | CC(C)[C@H](NC(=O)[C@H](CC[S+](C)[O-])NC(=O)c1ccc(CNC(=O)CN2CCN(CC(=O)O)CCN(CC(=O)O)CCN(CC(=O)O)CC2)cc1)C(=O)N[C@@H](CCCCNC(=O)CCc1cn(CC(=O)NC[C@H]2CC[C@H](C(=O)N[C@H](C(=O)NCCCC[C@H](NC(=O)N[C@@H](CCC(=O)O)C(=O)O)C(=O)O)C3Cc4ccccc4C3)CC2)nn1)C(=O)O (stereo partly shown) [[^68Ga]Ga-DOTA-AmBz-M(O)VK(HTK01166)-OH, metal not drawn] | 4.33 ± 2.07 %ID/g | 0.11 ± 0.05 %ID/g | 0.03 ± 0.01 %ID/g | 0.52 ± 0.13 %ID/g | 0.23 ± 0.05 %ID/g | 0.29 ± 0.1 %ID/g | 89.7 ± 19.3 %ID/g | 4.06 ± 1.27 %ID/g | 0.32 ± 0.06 %ID/g | 0.88 ± 0.1 %ID/g | 0.22 ± 0.05 %ID/g | 0.56 ± 0.24 %ID/g | 11.5 ± 2.7 %ID/g | 0.13 ± 0.05 %ID/g | 1.86 ± 2.44 %ID/g | 0.31 ± 0.07 %ID/g | 6.83 ± 2.81 | tissue to tissue ratio at 1 h ([5]; Tumor/Kidney uptake ratio): 0.04 ± 0.02; tissue to tissue ratio at 1 h ([5]; Tumor/Muscle uptake ratio): 17.9 ± 7.57 |
|  |  |  | CSCC[C@H](NC(=O)c1ccc(CNC(=O)CN2CCN(CC(=O)O)CCN(CC(=O)O)CCN(CC(=O)O)CC2)cc1)C(=O)N[C@H](C(=O)N[C@@H](CCCCNC(=O)CCc1cn(CC(=O)NC[C@H]2CC[C@H](C(=O)N[C@H](C(=O)NCCCC[C@H](NC(=O)N[C@@H](CCC(=O)O)C(=O)O)C(=O)O)C3Cc4ccccc4C3)CC2)nn1)C(=O)O)C(C)C [[^68Ga]Ga-DOTA-AmBz-MVK(HTK01166)-OH, metal not drawn] | 5.59 ± 4.02 %ID/g | 0.16 ± 0.04 %ID/g | 0.02 %ID/g | 0.72 ± 0.33 %ID/g | 0.25 ± 0.12 %ID/g | 0.4 ± 0.1 %ID/g | 104 ± 12.2 %ID/g | 3.98 ± 0.87 %ID/g | 0.58 ± 0.08 %ID/g | 0.96 ± 0.12 %ID/g | 0.21 ± 0.05 %ID/g | 0.6 ± 0.22 %ID/g | 8.87 ± 2.63 %ID/g | 0.11 ± 0.02 %ID/g | 1.03 ± 0.82 %ID/g | 0.36 ± 0.06 %ID/g | 7.24 ± 1.16 | unidentified radio-metabolite in urine [6]: no presence; tissue to tissue ratio at 1 h ([5]; Tumor/Kidney uptake ratio): 0.04 ± 0.01; tissue to tissue ratio at 1 h ([5]; Tumor/Muscle uptake ratio): 19.9 ± 5.41 |
| Met-Val, 1 h | Met-Val, 5 min p.i. | Met-Val, 15 min p.i. | [^68Ga]Ga-DOTA-AmBz-MVK(HTK01166)-OH |  |  |  |  |  |  |  |  |  |  |  |  |  |  |  |  |  | not cleaved [7]: ~95% intact after 1 h |
